In patent publication US11649285B2:

Molecular target: human VISTA, native (on anti-CD3-activated human T cells and PBMCs) (human (homo sapiens))

## control recombinant human IgG1 Fc
  division of CFSE-labeled human CD3+ T cells with plate-bound anti-CD3 and control rhIgG1Fc, flow cytometry (% CD3+ T cells dividing (72 hours)): > 40
